Results: the DeepSol protein solubility set

Assay: soluble on expression in E. coli; label from the status in PepcDB or PDB records

Sequence | soluble on expression in E. coli
MPKISSRDGGRPAQRTVNPIIVTRRGKIARLESGLTPQEAQIEDLVFLRKVLNRADIPYLLIRNHKNRPVLAINIELRAGLERALAAACATEPMYAKTIDEPGLSPVLVATDGLSQLVDPRVVRLYRRRIAPGGFRYGPAFGVELQFWVYEETVIRCPVENSLSRKVLPRNEITPTNVKLYGYKWPTLDGMFAPHASDVVFDIDMVFSWVDGSDPEFRARRMAQMSQYVVGEGDDAEARIRQIDELKYALRSVNMFAPWIRRIFIATDSTPPPWLAEHPKITIVRAEDHFSDRSALPTYNSHAVESQLHHIPGLSEHFLYSNDDMFFGRPLKASMFFSPGGVTRFIEAKTRIGLGANNPARSGFENAARVNRQLLFDRFGQVITRHLEHTAVPLRKSVLIEMEREFPEEFARTAASPFRSDTDISVTNSFYHYYALMTGRAVPQEKAKVLYVDTTSYAGLRLLPKLRKHRGYDFFCLNDGSFPEVPAAQRAERVVSFLERYFPIPAPWEKIAADVSRRDFAVPRTSAPSEGA | soluble
MPKLGIKPLRRQQLIDATLRSISERGLQNTTIVSISKIAGMSSGIISHYFGGKKELIEETVSYLLDQLQQSLLERITEENPPAHIRLNLIVEANFTEFQRSLLATKTWLSFWAMSMHDPAMARLQSINSNRLHSNLLFSFKELLDPESAANAAKQTAAMIDGFWLRSALSENSEQEFIAAELLCKKFINDVIKQEISNASN | not soluble
MPKLILLGDSTLDNFNWVPNKATVTDHLRRQLPKMEILNFAVDGFTTDSILYGEYKDCAVTSSQHTHKYFEPLKALENEQDVEHIVLSVLGNDFRIQLSKLIFMAPEERPKAIEQLINHIIKNYIQVVKEIRKVQPNAKLSIVLQYTPYVENDPYLIYFLMDKLFHHGTVSHGFLSYLQIMYYSIFGLNSKHEQQALNLLHKLMAKVYRNVFNELGDNSLAIIDLASSFDYRNSKLYKAQIEPSDEGGKLIASLITHTITHHDFQNESMLYAKPPLQPNPKILAVPLTKLKKDWFPQQIYVTQEQAITAFKQAYLLQLNKDRQSYLGLYSFFARSNVDFEHATLEKLIVHAQNYSTKKTGYRTLKVMQNLGWLTEQGNIKEESGIVRLLKN | not soluble
MPLLDSFKVDHTKMNAPAVRIAKTMLTPKGDNITVFDLRFCIPNKEILSPKGIHTLEHLFAGFMRDHLNGDSIEIIDISPMGCRTGFYMSLIGTPNEQKVSEAWLASMQDVLGVQDQASIPELNIYQCGSYTEHSLEDAHEIAKNVIARGIGVNKNEDLSLDNSLLKGSHHHHHH | soluble
MPLSYYEKGIMYKRKNFMGPAVKCFEEARKLEEKVGSKASLELAKIYAYFKDYEEAYKYCKEAISKSNYIEAYYLMVRILLLSNTPINEILKKAGKVKIHNSLLADIFCFEGNYEVALKIIDTCLKEDEVTRDLELIKIKCLLKLKQYDKCKDYIDNFSQSYLYFFKIRMYKVICCVLLEEYRLAWKIIDEFDYKKLSLYNKNKLKAYINFYNAALDIRGITPHENDEEYYSCIFEIIDILLATKEIKCLKKLIQTISKYDGGYLELAELYSNYGYVSEAKKLIVLYIKKFEVVNNKMIYILQKLEHHHHHH | not soluble
MPLTNNSTTKPQEIAAIDLGSNSFHMVIARVVNGALQVLGRLKQRVHLADGLDSNNMLSEEAIERGLACLALFAERLQGFSPDNVCIVGTHTLRQAANAETFLKRAAEVIPYPIEIISGQEEARLIFMGVEHTQPEKGRKLVIDIGGGSTEMVIGEDFEPLLVESRRMGCVSFAQQFFPGGEISKNNFRRARLAAAQKLENLAWQYRIQGWQYALGASGTIKATYEVLVEMGEKDGLITPERLEMLVENVLQFKQFSALSLPGLSEDRQSVFVPGLAILCGVFDALAIKTLRLSDGALREGVLYEMEGRFRHQDIRQRTAKSLADHYNIDREQARRVLETTEQLYTQWLAQNTKLVQPQLEALLKWAAMLHEVGLSINHSGMHRHSAYILQNTNLPGFNQEQQTLLATLVRMHRKAIKLDELPRLNLFKKKYYLPLIQLLRLSTLLNNQRQSTTTPESLRLITDDSHWTLRFPHGYLTQNSLVQLDFEREQAYWDDVVGWKLVIEEEEPDEAAKVAPEE | soluble
MPLTPADVHNVAFSKPPIGKRGYNEDEVDAFLDLVENELTRLIEENSDLRQRINELDQELAAGGGAGVTPQATQAIPAYEPEPGKPAPAAVSAGMNEEQALKAARVLSLAQDTADRLTNTAKAESDKMLADARANAEQILGEARHTADATVAEARQRADAMLADAQSRSEAQLRQAQEKADALQADAERKHSEIMGTINQQRAVLEGRLEQLRTFEREYRTRLKTYLESQLEELGQRGSAAPVDSNADAGGFDQFNRGKN | soluble
MPLVNSHIVEECLPFTSLRLDPEDINLSMGAGYVPDAEIQAISDALETEIAGICTPRFLYALFDAEPAGTCEVGVNGISLKTGSVITPYLKDAAGYVLFVATAGYEFEAFQHRIGSQGDILREFLLDAYGSAIAEAVVREVCRKVESRMFPLGYGVSHPYSPGYCGWHVTQQQLLFSCLPEFPCGVRLSDSSLMSPIKSVSGIIAYGPCIVKRKYGCELCGKADCYKNRNKLNRLEHHHHHH | soluble
MPLYRTYIEGEFLLGIWKSDETTEQLLASLEHKDWYREKLAVLSEKRKHEWLSVRVLLKALCGEEKEIAYYSSGRPYLKDGSRYISISHTRGYVAVALHSSCEVGMDIEQYGTRVRKVASRFIRSDEEPAMMEGDEVYALLLHWSAKEALFKLMGVEEVDFIRHLRIFPFSLSEEGEFEACEYRTGRQERYRVRYVTHPDFVLTWIIK | not soluble
MPMTGRCREPNCHAVVVRPLHYCTKHADKEAAYQASRERWTNRTSNSKRYKDYDRMRSKDPFKAEQHKFYQGKQWRSIREIALRRDNYLCQYCLNHKRVRTGNIGDHIVPYEVEPENRTNLANIAIACSKCHTAKTKWEQLYYGTGMGNKLKNAIPIRNVKDLPDFQKNIRLEHHHHHH | not soluble
MPNITWCDLPEDVSLWPGLPLSLSGDEVMPLDYHAGRSGWLLYGRGLDKQRLTQYQSKLGAAMVIVAAWCVEDYQVIRLAGSLTARATRLAHEAQLDVAPLGKIPHLRTPGLLVMDMDSTAIQIECIDEIAKLAGTGEMVAEVTERAMRGELDFTASLRSRVATLKGADANILQQVRENLPLMPGLTQLVLKLETLGWKVAIASGGFTFFAEYLRDKLRLTAVVANELEIMDGKFTGNVIGDIVDAQYKAKTLTRLAQEYEIPLAQTVAIGDGANDLPMIKAAGLGIAYHAKPKVNEKAEVTIRHADLMGVFCILSGSLNQK | not soluble
MPNKNTQEYWEERGRKAIENELKRDKTKAEEIERILNMMIKRIEKEINAFIVKYGDFAGVTLQEAQKIIDEFDVKAFQEEAKRLVENKDFSDRANEELKKYNTKMYVSREQMLKIQIEFLIAYATAQTELSMREYFESTAYRVFSDQAGILGEGVQVAKEVIDTIVDTQFHGVVWSERLWTNTEAMKQEVEEIIANVVIRGRHPNEYVKDMRKHLNKFEGTARQKTAAIKSLLYTESARVHAQSSIDSMKEISPEGYYMYIAKIDNRTTKVCKGLNGEIFKVKDAKIGVNFYPMHINCRSDCALLPKSMWPKKPSKKRKTKYFGGKVKSGD | not soluble
MPNLSCGVDNCAYNQNDMCSLNSIKVNGSFANHSEATCCGSFVEKGGFTNAAVDMGPAEPATSVACEAEKCCYNKNCKCHAESIDISGDYAQHQDNTECSTFRQELEHHHHHH | soluble
MPNYKLLYFDARALAEPIRIMFAMLNVPYEDYRVSVEEWSKLKPTTPFGQLPILQVDGEQFGQSMSITRYLARKFGLAGKTAEEEAYADSIVDQYRDFIFFFRQFTSSVFYGSDADHINKVRFEVVEPARDDFLAIINKFLAKSKSGFLVGDSLTWADIVIADNLTSLLKNGFLDFNKEKKLEEFYNKIHSIPEIKNYVATRKDSIV | not soluble
MPPDDPSGRHGPRIESFLSKVPVVSSNPLVCPYARKCTYGNKCKFYHPERANGQHMSVTERLMKENQQKKSLGAVKSMQYEMFKNKHAALSRTQSLNVVKQLTENMSQLPPTPESPMQMPRQHMQLQQANSAPWQQHTVVQRHGSSPLTPVNRQMNVYPDMYNMSQQQNHQVLPNQHGVIGGQRPPKMTTTVSQTHLFAPSTAVWGHSELSVGPVNTGSDESLAEVRSRVHFHLCNIFPHDFVESVMAANPEEVNAPVLCELIIRAQKEYRK | not soluble
MPPPNKRQKHARICGFMGTLARKKKEIEQQEALMKLHNLPLTYTEDQYKIVKEESTIYKNRFETAAAKNVELLKATDELKKELEFLKRQPGNQFKVDKKLKSEIDSAEEESKFYKNCFETTAAENVELLKVTDQLKKELEFLKAQQGNQFKVDMKIKSEMESATQSNLILLREKEMWKDRFNDVLSEKLALSARIRNVIGDRSESVEVPNDSNRDIWELREDLEMERSARRKAEEELKILKMTSSRGSMHISRDSTNQTPNEILLSMAIRLDSTSSN | not soluble
MPPRMSVAPERALIDVDREIRIDGFGPYACIDVTAEMRMCGVPWRSRATFLAGADGSLDLGRDSPVSGDYAEPDAMGLVWSMQCQDPPRAVFPPDRTDALTVHITASDGRHEAHATLVQEFLAEGVRHQAVRARAGGMSLSGELYTPP | not soluble
MPPTPEVGLPLWLLAELTYRCPLQCPYCSNPLDFAAQGQELSTEQWFKVMAEAREMGAAQIGFSGGEPLVRQDLAQLIAEARRLGYYTNLITSGIGLTEARIADFKKAGLDHIQISFQASDEQVNNLLAGSKKAFAQKLEMARAVKAHGYPMVLNFVTHRHNIDKIDRIIELCIALEADFVELATCQFYGWAHLNRLGLLPTRAQLERAERITNEYRDKLKAEGNPCKLIFVTPDYYEERPKACMNGWGNLFLTITPDGTALPCH | not soluble
MPQFASKAEEKNYYERQASLAEFLTWYHQQELPEYEKPSLTVDMVLLCYNKEADQLKVLLIQRKGHPFRNSWALPGGFVNRNESTEDSVLRETKEETGVVISQENIEQLHSFSRPDRDPRGWVVTVSYLAFIGEEPLIAGDDAKEVHWFNLERHGQHITLSHEDVEITLDLKTAASLGKDTLAFDHSEIIIKAFNRVVDKMEHEPQVLQVLGKDFTITEARKVFAKFLGVDYRSIDHSNFKKAMTQYFEELGERPVGIGRPSKIYQLKTTTGF | soluble
MPQQTQTSAEKRCMVTKRIMLKLPDISAASLIPASIEASPAQVLGPASLAGIFPRGVRVYLTDTGAASQEKLVDAATHLRNLGYEPVPHLAARRIPSRVEFEEQVKRLAGEADVTDVLVVGGGVDRPAGPFASSMDMLSSGIFDRYGIKKIAIAGHPEGSPDFSEETAIAALRLKRDFGERSDAAMRIVTQFGFDPARFIAWAEGLAASGIDLPVHIGVSGPAKITTLLKYAALCGVGNSIAYLKKNALSLTTLARGHSPDSIVGPIERHWQANPQGPIRQIHVFPFGGLQNSADWLVSRGSWQTRDAGRPAPADSMAG | not soluble
MPQSESNIALLIDADNAPASKIEAIVSEIAKYGVANIRKAYGNWKSPNLKAWEECLHEYAIRPVQQFDYTKGKNATDAAMIIDAMDLLYTQRLDAFAIVSSDCDFTPLVMRILTNGLKVYGFGEKKTPLPFVYACSTFLYLESIDQIENSEGATQSSTSVKKTGKELKQDAKLISLLRSAISSTIDDDGWSSLAEIGGHIKNQASFDSRNYGYAKLSSLFEAIDLFEIERKNRAIYVRNRQKKSATSKSLEHHHHHH | soluble
MPQSYIVRTMRPADVEAVLRVQAAVYPASLLESAALFQNRIEIAPATCQVALDGQDLIGYLIAYPWDAGLPPALDRSLERLPGAADTWFVHDCAVLPAAQGGGVAAALLAGGRAQARRLGLRRASLVALAPAVGYWLRHGYQPLADSDALRAKLAGYGDGARYMVRADLAG | not soluble
MPRHRISGINWLAHYNELIRFWTRKTGSRGDVEDATHDVITKLLESNVSTISSPRSYLHSSIRNRLTDSYRQNKILDLVPIHDLPEDSHPLQPNDPVTHTCTMQLLTALKEALQELPLKCRQVFIWHRLEGYSQTEIAEKLDISVNMVEKYMIRATRHLRDRLQDHIPD | not soluble
